One block for each substance: values may come before it.
Tests used:
[1] = target: human Fcgamma receptor I (human) (UniProt P12314); assay: SPR BIAcore T100, Bi-huFcyRI on SA-CAP chip, antibody 10 ug/mL injected 60 s, reference-subtracted response after injection
[2] = target: bispecific effector function silent anti-ANG2/VEGF antibody; assay: bridging ELISA (Ex. 2), VEGF bridges Bi-drug and Dig-drug; VEGF 0.195 ng/mL in cynomolgus pool plasma; cut off 0.05
[3] = target: bispecific effector function silent anti-ANG2/VEGF antibody; assay: bridging ELISA (Ex. 2), VEGF bridges Bi-drug and Dig-drug; VEGF 0.781 ng/mL in cynomolgus pool plasma
[4] = target: bispecific effector function silent anti-ANG2/VEGF antibody; assay: bridging ELISA (Ex. 2), VEGF bridges Bi-drug and Dig-drug; VEGF 12.5 ng/mL in cynomolgus pool plasma
[5] = target: bispecific effector function silent anti-ANG2/VEGF antibody; assay: bridging ELISA (Ex. 2), VEGF bridges Bi-drug and Dig-drug; VEGF 0.391 ng/mL in cynomolgus pool plasma
[6] = target: bispecific effector function silent anti-ANG2/VEGF antibody; assay: bridging ELISA (Ex. 2), VEGF bridges Bi-drug and Dig-drug; VEGF 50 ng/mL in cynomolgus pool plasma
[7] = target: bispecific effector function silent anti-ANG2/VEGF antibody; assay: bridging ELISA (Ex. 2), VEGF bridges Bi-drug and Dig-drug; VEGF 1.56 ng/mL in cynomolgus pool plasma
[8] = target: bispecific effector function silent anti-ANG2/VEGF antibody; assay: bridging ELISA (Ex. 2), VEGF bridges Bi-drug and Dig-drug; VEGF 0.0489 ng/mL in cynomolgus pool plasma; cut off 0.05
[9] = target: bispecific effector function silent anti-ANG2/VEGF antibody; assay: bridging ELISA (Ex. 2), VEGF bridges Bi-drug and Dig-drug; VEGF 25 ng/mL in cynomolgus pool plasma
[10] = target: bispecific effector function silent anti-ANG2/VEGF antibody; assay: bridging ELISA (Ex. 2), VEGF bridges Bi-drug and Dig-drug; VEGF 3.13 ng/mL in cynomolgus pool plasma
[11] = target: bispecific effector function silent anti-ANG2/VEGF antibody; assay: bridging ELISA (Ex. 2), VEGF bridges Bi-drug and Dig-drug; VEGF 6.25 ng/mL in cynomolgus pool plasma
[12] = target: bispecific effector function silent anti-ANG2/VEGF antibody; assay: bridging ELISA (Ex. 2), VEGF bridges Bi-drug and Dig-drug; VEGF 100 ng/mL in cynomolgus pool plasma
[13] = target: bispecific effector function silent anti-ANG2/VEGF antibody; assay: bridging ELISA (Ex. 2), ANG2 bridges Bi-drug and Dig-drug; ANG2 0.0489 ng/mL in cynomolgus pool plasma; cut off 0.05
[14] = target: bispecific effector function silent anti-ANG2/VEGF antibody; assay: bridging ELISA (Ex. 2), ANG2 bridges Bi-drug and Dig-drug; ANG2 1.56 ng/mL in cynomolgus pool plasma; cut off 0.05
[15] = target: bispecific effector function silent anti-ANG2/VEGF antibody; assay: bridging ELISA (Ex. 2), ANG2 bridges Bi-drug and Dig-drug; ANG2 0.0977 ng/mL in cynomolgus pool plasma; cut off 0.05
[16] = target: bispecific effector function silent anti-ANG2/VEGF antibody; assay: bridging ELISA (Ex. 2), ANG2 bridges Bi-drug and Dig-drug; ANG2 0.195 ng/mL in cynomolgus pool plasma; cut off 0.05
[17] = target: bispecific effector function silent anti-ANG2/VEGF antibody; assay: bridging ELISA (Ex. 2), ANG2 bridges Bi-drug and Dig-drug; ANG2 6.25 ng/mL in cynomolgus pool plasma; cut off 0.05
[18] = target: bispecific effector function silent anti-ANG2/VEGF antibody; assay: bridging ELISA (Ex. 2), ANG2 bridges Bi-drug and Dig-drug; ANG2 50 ng/mL in cynomolgus pool plasma; cut off 0.05
[19] = target: bispecific effector function silent anti-ANG2/VEGF antibody; assay: bridging ELISA (Ex. 2), ANG2 bridges Bi-drug and Dig-drug; ANG2 12.5 ng/mL in cynomolgus pool plasma; cut off 0.05
[20] = target: bispecific effector function silent anti-ANG2/VEGF antibody; assay: bridging ELISA (Ex. 2), ANG2 bridges Bi-drug and Dig-drug; ANG2 25 ng/mL in cynomolgus pool plasma; cut off 0.05
[21] = target: bispecific effector function silent anti-ANG2/VEGF antibody; assay: bridging ELISA (Ex. 2), ANG2 bridges Bi-drug and Dig-drug; ANG2 3.13 ng/mL in cynomolgus pool plasma; cut off 0.05
[22] = target: bispecific effector function silent anti-ANG2/VEGF antibody; assay: bridging ELISA (Ex. 2), ANG2 bridges Bi-drug and Dig-drug; ANG2 0.391 ng/mL in cynomolgus pool plasma; cut off 0.05
[23] = target: bispecific effector function silent anti-ANG2/VEGF antibody; assay: bridging ELISA (Ex. 2), ANG2 bridges Bi-drug and Dig-drug; ANG2 0.781 ng/mL in cynomolgus pool plasma; cut off 0.05
[24] = target: bispecific effector function silent anti-ANG2/VEGF antibody; assay: bridging ELISA (Ex. 2), ANG2 bridges Bi-drug and Dig-drug; ANG2 100 ng/mL in cynomolgus pool plasma; cut off 0.05

VEGF, sequence (P15692 other isoform, or with tags, fused parts or gaps limits assumed): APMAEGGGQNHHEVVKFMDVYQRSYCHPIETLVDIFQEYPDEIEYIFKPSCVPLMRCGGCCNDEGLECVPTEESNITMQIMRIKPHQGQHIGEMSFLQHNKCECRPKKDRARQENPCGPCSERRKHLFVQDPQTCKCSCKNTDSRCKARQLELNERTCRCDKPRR
ANG2, sequence (O15123 19-496 limits assumed): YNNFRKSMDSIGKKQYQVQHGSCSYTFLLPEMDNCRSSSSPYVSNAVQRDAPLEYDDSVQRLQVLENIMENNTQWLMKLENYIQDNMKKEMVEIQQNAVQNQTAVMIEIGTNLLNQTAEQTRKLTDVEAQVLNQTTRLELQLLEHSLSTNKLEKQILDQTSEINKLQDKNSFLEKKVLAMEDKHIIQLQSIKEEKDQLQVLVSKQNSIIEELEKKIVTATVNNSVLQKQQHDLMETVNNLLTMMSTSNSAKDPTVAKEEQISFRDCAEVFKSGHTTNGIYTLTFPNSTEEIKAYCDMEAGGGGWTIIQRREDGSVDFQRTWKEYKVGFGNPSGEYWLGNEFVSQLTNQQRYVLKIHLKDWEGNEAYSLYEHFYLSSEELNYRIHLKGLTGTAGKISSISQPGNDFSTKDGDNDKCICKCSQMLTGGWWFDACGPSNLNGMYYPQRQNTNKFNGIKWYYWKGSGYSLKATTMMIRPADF
UniProt P12314, sequence (P12314 16-288 limits assumed): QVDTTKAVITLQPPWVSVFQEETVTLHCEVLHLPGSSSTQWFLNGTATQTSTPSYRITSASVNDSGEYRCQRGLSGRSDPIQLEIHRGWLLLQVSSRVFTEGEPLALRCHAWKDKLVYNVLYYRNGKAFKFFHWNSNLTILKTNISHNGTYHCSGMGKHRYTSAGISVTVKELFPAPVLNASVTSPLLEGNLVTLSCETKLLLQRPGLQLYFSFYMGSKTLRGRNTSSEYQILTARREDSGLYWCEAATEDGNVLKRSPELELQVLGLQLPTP

Substance: human IgG1 (antibody)
- signal (RU) [1]: 139 RU

Substance: human IgG1 with P329G L243A L235A mutations (antibody)
- signal (RU) [1]: 1.5 RU

Substance: human IgG4 (antibody)
- signal (RU) [1]: 20.2 RU

Substance: human IgM (from UniProt P01871 1-453) (antibody)
- signal (RU) [1]: 5.2 RU

Substance: human IgG1 with L234A L235A mutations (antibody)
- signal (RU) [1]: 4 RU

The remaining lines, values ahead:

- signal (RU) [1]: 3 RU
Substance: mouse IgG1 (antibody)

- OD 405 nm [2]: 0.039 OD 405 nm
- OD 405 nm [3]: 0.083 OD 405 nm
- OD 405 nm [4]: 0.921 OD 405 nm
- OD 405 nm [5]: 0.058 OD 405 nm
- OD 405 nm [6]: 2.34 OD 405 nm
- OD 405 nm [7]: 0.138 OD 405 nm
- OD 405 nm [8]: 0.025 OD 405 nm
- OD 405 nm [9]: 1.69 OD 405 nm
- OD 405 nm [10]: 0.274 OD 405 nm
- OD 405 nm [11]: 0.51 OD 405 nm
- OD 405 nm [12]: 2.83 OD 405 nm
Substance: VEGF (from UniProt P15692 27-191) (ligand)

- OD 405 nm [13]: 0.022 OD 405 nm
- OD 405 nm [14]: 0.024 OD 405 nm
- OD 405 nm [15]: 0.022 OD 405 nm
- OD 405 nm [16]: 0.024 OD 405 nm
- OD 405 nm [17]: 0.031 OD 405 nm
- OD 405 nm [18]: 0.076 OD 405 nm
- OD 405 nm [19]: 0.038 OD 405 nm
- OD 405 nm [20]: 0.052 OD 405 nm
- OD 405 nm [21]: 0.028 OD 405 nm
- OD 405 nm [22]: 0.022 OD 405 nm
- OD 405 nm [23]: 0.024 OD 405 nm
- OD 405 nm [24]: 0.14 OD 405 nm
Substance: ANG2 (from UniProt O15123 19-496) (ligand)

- signal (RU) [1]: 31.1 RU
Substance: mouse IgG2a (antibody)

- signal (RU) [1]: 1.8 RU
Substance: human IgG1 P329G L234A L235A I253A H310A H434A mutations (antibody)

- signal (RU) [1]: 2.6 RU
Substance: human IgG4 with S228P L235E mutations (antibody)

Source: patent publication US20170343560A1
